Reference: patent publication US10822423 (TRUSTEES OF DARTMOUTH COLLEGE, dated 2020)
Values belong to the binder of their own block, whether it stands above or below them.

Target: T1, purified recombinant human CD40L (human, UniProt P29965 113-261, limits assumed)
T1 construct: also called hCD40L; CD154
T1 sequence (looked up): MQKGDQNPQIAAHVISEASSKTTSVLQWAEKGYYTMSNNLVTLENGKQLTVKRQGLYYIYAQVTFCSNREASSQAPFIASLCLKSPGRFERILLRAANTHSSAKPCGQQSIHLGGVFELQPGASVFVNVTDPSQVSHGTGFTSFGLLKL
Experiment: ELISA: recombinant human CD40L coated, detected with mouse anti-human IgG then HRP goat anti-mouse IgG
Protocol: Both antibodies were purified by conventional methods and the binding activity of both recombinantly expressed antibodies to hCD40L was assayed. To measure anti-hCD40L variants binding to hCD40L, purified recombinant human CD40L was bound to a 96-well ELISA-grade plate. After blocking, anti-hCD40L variants were added followed by mouse anti-human IgG then horseradish peroxidase-labeled goat anti-mouse IgG. TMB color development was then quantitated at 450 nm by an ELISA reader.

binding result: binds
B1: Antibody A (anti-human CD40L IgG1 antibody with V215A and E269R mutations in the human IgG1 constant region) (antibody, V domains shown)
VH: EVQLQESGPGLVKPSETLSLTCTVSGDSITNGFWIWIRKPPGNKLEYMGYISYSGSTYYNPSLKSRISISRDTSKNQFSLKLSSVTAADTGVYYCACRSYGRTPYYFDFWGQGTTLTVSS
VL: DIVMTQSPSFLSASVGDRVTITCKASQNVITAVAWYQQKPGKSPKLLIYSASNRYTGVPDRFSGSGSGTDFTLTISSLQPEDFADYFCQQYNSYPYTFGGGTKLEIK
notes: Human IgG1 with V215A and E269R in the constant region, expressed in HEK-293 Freestyle cells; also called anti-hCD40L variant

binding result: binds
B2: Antibody B (anti-human CD40L IgG1 antibody with V215A, E269R and K322A mutations in the human IgG1 constant region) (antibody, V domains shown)
VH: B1 VH
VL: B1 VL
notes: Human IgG1 with V215A, E269R and K322A in the constant region, expressed in HEK-293 Freestyle cells; also called anti-hCD40L variant
